T1: VEGFR2 (KDR) IgD6-7 (human, UniProt P35968)
T1 chain: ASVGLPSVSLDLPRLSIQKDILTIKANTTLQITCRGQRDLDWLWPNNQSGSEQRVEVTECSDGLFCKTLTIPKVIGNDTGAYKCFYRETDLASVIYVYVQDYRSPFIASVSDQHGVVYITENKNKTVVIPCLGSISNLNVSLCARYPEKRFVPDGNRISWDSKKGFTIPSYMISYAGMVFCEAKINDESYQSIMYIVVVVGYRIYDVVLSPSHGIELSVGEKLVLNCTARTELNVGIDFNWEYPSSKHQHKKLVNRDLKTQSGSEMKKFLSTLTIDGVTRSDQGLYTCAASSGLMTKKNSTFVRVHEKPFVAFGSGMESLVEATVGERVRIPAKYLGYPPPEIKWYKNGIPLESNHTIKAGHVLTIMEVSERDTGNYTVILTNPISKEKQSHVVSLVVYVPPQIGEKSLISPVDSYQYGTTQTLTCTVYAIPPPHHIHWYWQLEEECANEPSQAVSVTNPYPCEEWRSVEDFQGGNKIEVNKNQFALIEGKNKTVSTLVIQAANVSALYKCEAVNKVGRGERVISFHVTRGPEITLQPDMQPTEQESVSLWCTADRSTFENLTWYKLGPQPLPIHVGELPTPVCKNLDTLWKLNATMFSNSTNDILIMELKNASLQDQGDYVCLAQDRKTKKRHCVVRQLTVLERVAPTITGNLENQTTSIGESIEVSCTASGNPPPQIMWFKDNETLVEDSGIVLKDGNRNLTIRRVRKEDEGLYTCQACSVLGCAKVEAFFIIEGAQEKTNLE

T2: VEGFR3 (Flt-4) IgD6-7 (human, UniProt P35916)
T2 chain: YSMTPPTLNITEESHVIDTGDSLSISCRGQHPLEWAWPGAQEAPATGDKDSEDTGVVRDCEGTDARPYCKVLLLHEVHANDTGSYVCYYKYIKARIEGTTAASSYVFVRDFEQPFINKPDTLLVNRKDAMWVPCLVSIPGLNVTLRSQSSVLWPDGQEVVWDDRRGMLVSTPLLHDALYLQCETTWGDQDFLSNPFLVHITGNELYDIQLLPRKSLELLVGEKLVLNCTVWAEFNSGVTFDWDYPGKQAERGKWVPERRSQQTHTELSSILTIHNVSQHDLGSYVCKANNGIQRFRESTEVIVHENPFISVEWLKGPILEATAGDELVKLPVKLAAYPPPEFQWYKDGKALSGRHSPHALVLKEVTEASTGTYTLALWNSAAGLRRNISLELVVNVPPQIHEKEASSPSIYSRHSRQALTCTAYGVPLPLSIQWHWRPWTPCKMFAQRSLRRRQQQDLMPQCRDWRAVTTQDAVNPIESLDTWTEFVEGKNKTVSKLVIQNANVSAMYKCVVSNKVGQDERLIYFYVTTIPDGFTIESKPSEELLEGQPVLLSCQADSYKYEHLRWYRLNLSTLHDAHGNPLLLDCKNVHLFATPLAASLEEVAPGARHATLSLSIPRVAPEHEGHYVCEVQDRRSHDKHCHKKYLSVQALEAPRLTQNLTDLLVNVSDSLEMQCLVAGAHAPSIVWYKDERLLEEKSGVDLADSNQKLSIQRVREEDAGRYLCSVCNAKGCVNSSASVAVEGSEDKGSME

T3: VEGFR2 (KDR) IgD4-7 (human, UniProt P35968)
T3 chain: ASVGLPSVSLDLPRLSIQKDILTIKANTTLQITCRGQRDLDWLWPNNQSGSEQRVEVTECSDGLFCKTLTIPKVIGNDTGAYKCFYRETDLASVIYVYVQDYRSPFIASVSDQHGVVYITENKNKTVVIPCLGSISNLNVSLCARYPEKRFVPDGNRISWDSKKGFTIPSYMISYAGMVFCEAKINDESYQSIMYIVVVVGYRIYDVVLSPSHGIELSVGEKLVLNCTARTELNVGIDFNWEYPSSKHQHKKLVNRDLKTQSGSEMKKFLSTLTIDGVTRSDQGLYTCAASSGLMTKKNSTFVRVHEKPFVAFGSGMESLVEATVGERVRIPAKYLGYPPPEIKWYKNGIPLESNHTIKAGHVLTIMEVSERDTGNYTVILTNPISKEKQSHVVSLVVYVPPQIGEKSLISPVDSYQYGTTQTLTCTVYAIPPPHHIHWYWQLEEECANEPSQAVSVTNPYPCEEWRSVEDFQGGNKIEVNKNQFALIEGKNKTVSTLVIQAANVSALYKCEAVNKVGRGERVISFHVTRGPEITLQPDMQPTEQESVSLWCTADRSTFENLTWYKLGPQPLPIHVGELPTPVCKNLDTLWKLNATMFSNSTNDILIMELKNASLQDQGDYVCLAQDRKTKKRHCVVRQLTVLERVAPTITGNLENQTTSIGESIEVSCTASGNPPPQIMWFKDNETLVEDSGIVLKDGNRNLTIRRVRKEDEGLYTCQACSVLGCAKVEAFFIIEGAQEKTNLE

T4: VEGFR3 (Flt-4) IgD4-7 (human, UniProt P35916)
T4 chain: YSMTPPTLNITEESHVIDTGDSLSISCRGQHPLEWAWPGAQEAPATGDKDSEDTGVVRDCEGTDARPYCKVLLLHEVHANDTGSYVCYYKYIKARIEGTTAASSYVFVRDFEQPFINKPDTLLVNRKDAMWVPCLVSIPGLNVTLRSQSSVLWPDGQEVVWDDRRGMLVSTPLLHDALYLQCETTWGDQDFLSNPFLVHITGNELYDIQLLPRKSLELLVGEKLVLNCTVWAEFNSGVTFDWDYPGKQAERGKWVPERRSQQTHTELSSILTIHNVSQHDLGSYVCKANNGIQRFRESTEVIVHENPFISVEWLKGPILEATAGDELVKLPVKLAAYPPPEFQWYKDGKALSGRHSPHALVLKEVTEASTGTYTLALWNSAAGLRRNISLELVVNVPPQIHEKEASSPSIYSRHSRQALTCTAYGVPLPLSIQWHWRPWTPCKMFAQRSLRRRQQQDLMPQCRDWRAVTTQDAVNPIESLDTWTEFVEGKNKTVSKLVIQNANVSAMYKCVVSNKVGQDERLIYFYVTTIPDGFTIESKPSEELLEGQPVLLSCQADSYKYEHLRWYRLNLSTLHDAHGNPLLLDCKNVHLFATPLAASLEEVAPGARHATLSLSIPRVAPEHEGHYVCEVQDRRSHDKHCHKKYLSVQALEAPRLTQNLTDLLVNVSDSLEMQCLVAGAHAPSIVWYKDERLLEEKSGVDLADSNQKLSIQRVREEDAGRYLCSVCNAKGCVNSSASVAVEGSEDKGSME


Assays:
Assay in all cases: SPR
VEGFR2 (KDR) IgD6-7 = target: T1, VEGFR2 (KDR) IgD6-7
VEGFR3 (Flt-4) IgD6-7 = target: T2, VEGFR3 (Flt-4) IgD6-7
VEGFR2 (KDR) IgD4-7 = target: T3, VEGFR2 (KDR) IgD4-7
VEGFR3 (Flt-4) IgD4-7 = target: T4, VEGFR3 (Flt-4) IgD4-7

| Kd (VEGFR2 (KDR) IgD6-7) | Kd (VEGFR3 (Flt-4) IgD6-7) | Kd (VEGFR2 (KDR) IgD4-7) | Kd (VEGFR3 (Flt-4) IgD4-7) | Binder |
| --- | --- | --- | --- | --- |
| 1.5 nM | 4.8 nM | 0.46 nM | 1.1 nM | R2C9-11 (antibody, V domains shown) VH: QVQLQQPGAELVKPGASVKLSCKASGYTFTSYWMHWVKQRPGQGLEWIGEINPSNGRTNYNEKFKSKATLTVDKSSSTAYMQLSSLTSEDSAVYYCANLYFDVWGAGTTVTVSS VL: DIVMTQSPSSLSVSAGEKVTMSCKSSQNLLNSGNQKYYLAWYQQKPGQPPKLLIYGASIRESGVPDRFIGSGSGTDFTLTISSVQAEDLAVYFCQSDHSYPYTFGGGTKLEIK |
| 1.13 nM | 13 nM | 2.18 nM | 3.3 nM | R2C7-1 (antibody, V domains shown) VH: EVQLQQSGPELVKPGASVKISCKASGYSFTDYFINWVIQRHGKSLEWVGRINPYNGGSFYNQKFKDKATLTVDKSSNIAHMELRSLASEDSAIYYCARSGGNGYDYWGQGTTLTVSS VL: DIVMTQAAPSVPVIPGESVSISCRSSKSLLHSNGNTYLYWFLQRPGQSPQLLIYRMSNLASGVPDRFSGSGSGTAFTLRISRVEAEDVGVYYCMQHLEYPYTFGGGTKVEIK |

From US11623960 (dated 2023)
